Results as given in paper PMC8755082, “Recognition of G-quadruplex RNA by a crucial RNA methyltransferase component, METTL14”.

Experiments:
[1] = molecular target: METTL3 MTD (MTD3);METTL14 MTD without RGG (MTD14) (human?;human?, UniProt Q86U44;Q9HCE5 255-580;110-413, |); test: EMSA; K+ buffer; EMSA: 2.5 nM RNA, 10 mM potassium (or lithium) phosphate pH 7.5, 25 uM ZnCl2, 10 uM SAM, 0.5 mM DTT, 0.005% Tween 20, 2.5% ficoll, 50 ng/uL yeast tRNA, 4 C, 1 h; GST-RGG: 25 mM Tris-HCl pH 7.5 with 10 mM KCl or LiCl instead of phosphate; conditions: protein: recombinant;recombinant; tags: Strep-tag II;His6; copies: 1;1; label: 5' FAM; intramolecular parallel G4 in K+; unfolded in Li+
[2] = molecular target: T1, METTL3 MTD (MTD3);METTL14 MTD-RGG (MTD14-RGG) (human?;human?, UniProt Q86U44;Q9HCE5 255-580;110-456, |); test: as above; conditions: protein: recombinant;recombinant, tags: Strep-tag II;His6, copies: 1;1, label: 5' FAM
[3] = molecular target: T1, METTL3 MTD (MTD3);METTL14 MTD-RGG …; test: EMSA; Li+ buffer; EMSA: 2.5 nM RNA, 10 mM potassium (or lithium) phosphate pH 7.5, 25 uM ZnCl2, 10 uM SAM, 0.5 mM DTT, 0.005% Tween 20, 2.5% ficoll, 50 ng/uL yeast tRNA, 4 C, 1 h; GST-RGG: 25 mM Tris-HCl pH 7.5 with 10 mM KCl or LiCl instead of phosphate; conditions: protein: recombinant;recombinant; tags: Strep-tag II;His6; copies: 1;1; label: 5' FAM; no G4

T1 sequence (Q86U44 255-580, chain 1 of 2): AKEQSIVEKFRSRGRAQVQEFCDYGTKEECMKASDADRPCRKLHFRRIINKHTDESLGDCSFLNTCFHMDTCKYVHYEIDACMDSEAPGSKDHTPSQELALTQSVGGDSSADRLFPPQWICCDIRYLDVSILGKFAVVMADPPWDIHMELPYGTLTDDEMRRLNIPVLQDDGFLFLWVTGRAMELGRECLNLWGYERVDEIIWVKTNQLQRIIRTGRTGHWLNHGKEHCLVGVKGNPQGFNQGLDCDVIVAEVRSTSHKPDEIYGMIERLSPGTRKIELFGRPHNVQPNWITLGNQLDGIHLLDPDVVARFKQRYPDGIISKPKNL
T1 sequence (Q9HCE5 110-456, chain 2 of 2): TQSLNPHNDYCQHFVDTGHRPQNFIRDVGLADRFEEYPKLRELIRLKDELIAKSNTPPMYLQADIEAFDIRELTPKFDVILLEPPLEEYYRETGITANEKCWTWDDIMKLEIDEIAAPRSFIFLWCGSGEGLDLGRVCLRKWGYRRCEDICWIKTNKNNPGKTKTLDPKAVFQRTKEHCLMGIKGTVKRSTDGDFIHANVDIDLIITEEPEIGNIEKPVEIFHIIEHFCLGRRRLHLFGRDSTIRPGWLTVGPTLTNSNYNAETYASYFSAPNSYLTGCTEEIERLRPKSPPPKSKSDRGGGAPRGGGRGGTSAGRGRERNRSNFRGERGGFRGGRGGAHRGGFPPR
Chain of METTL3 MTD (MTD3);METTL14 MTD without RGG (MTD14) (Q86U44 255-580, chain 1 of 2): as the sequence (Q86U44 255-580, chain 1 of 2) above
Chain of METTL3 MTD (MTD3);METTL14 MTD without RGG (MTD14) (Q9HCE5 110-413, chain 2 of 2): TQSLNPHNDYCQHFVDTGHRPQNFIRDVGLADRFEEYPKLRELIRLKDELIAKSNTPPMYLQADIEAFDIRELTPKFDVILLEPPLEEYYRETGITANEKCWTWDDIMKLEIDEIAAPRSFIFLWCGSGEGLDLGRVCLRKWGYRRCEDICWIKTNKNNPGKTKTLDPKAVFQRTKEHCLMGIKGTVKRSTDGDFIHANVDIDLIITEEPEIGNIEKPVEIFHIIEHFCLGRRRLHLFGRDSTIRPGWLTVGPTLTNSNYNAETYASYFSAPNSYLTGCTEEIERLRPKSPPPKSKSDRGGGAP

For UUAGGGUUAGGGUUUUAGACAUUUUUUAGGGUUAGGG (structured_RNA) [G4 RNA1], the Kd [1] was 419 ± 109 nM and the Kd ([2]; intramolecular parallel G4 in K+, unfolded in Li+) was 35 ± 12 nM.

In the case of UGAGUGUGAGUGUUUUAGACAUUUUUGAGUGUGAGUG (ssRNA) [Non-G4 RNA1], the Kd [3] is reported as 149 ± 11 nM and the Kd ([2]; no G4) is reported as 209 ± 94 nM.

UUUUUUUUUUUUUGAGUGUGAGUGAGACAUGAGUGUGAGUG (ssRNA) [Non-G4 RNA2] showed a Kd ([2]; no G4) of 309 ± 85 nM.

Binder UUUUUUUUUUUUUUAGGGUUAGGGAGACAUUAGGGUUAGGG (structured_RNA) [G4 RNA3] has a Kd ([2]; intramolecular G4 in K+, loops 3-8-3) of 29 ± 13 nM.

UUAGGGUUAGGGUUAGGGUUUUAGACAUUUUUUAGGG (structured_RNA) [G4 RNA2] gave a Kd ([2]; intramolecular G4 in K+, loops 3-3-16) of 36 ± 11 nM.

Binder UUAGGGUUAGGGUUAGGGUUAGGGAGACAUUUUUUUUUUUU (structured_RNA) [G4 RNA4] has a Kd ([2]; intramolecular G4 in K+, loops 3-3-3) of 35 ± 9 nM.
